The record followed here is patent US20090155164A1 (Amgen, published 2009).

B1: anti-c-fms hybridoma antibody 2.360 (antibody, IgG2, V domains shown)
VH: QVQLVQSGAEVKKPGASVKVSCKVSGYTLTELSMHWVRQAPGKGLEWMGGFDPEDGETIYAQKFQGRVTMTEDTSTDTVYMELSSLRSEDTAVYYCATGVMITFGGVIVGHSYYGMDVWGQGTTVTVSS
VL: DIQMTQSPSSLSASVGDRVTITCRASQGINNYLAWYQQKPGKVPQLLIYVASTLQSGVPSRFSGSGSGTDFTLTISSLQPEDVATYYCQKYNSGPFTFGPGTKVDIK
notes: Hybridoma IgG2 (cohort 2)
B2: anti-c-fms hybridoma antibody 1.134 (antibody, IgG1, V domains shown)
VH: QVQLVESGGGVVQPGRSLRLSCAASGFTFSSYGMHWVRQAPGKGLEWVAVIWYDGSNKYYADSVKGRFTISRDNSKNTLYLQMNSLRAEDTAVYYCASSSWSYYGMDVWGQGTTVTVSS
VL: DIQMTQSPSSLSASVGDRVTITCQASQDINNYLNWYQQKPGKAPKLLIYDASNLEIGVPSRFSGSGSGTDFIFTISSLQPEDIATYYCQQYDNFPFTFGGGTKVEIK
notes: Hybridoma IgG1 (cohort 1); also called 1.134.1
B3: anti-c-fms hybridoma antibody 2.475 (antibody, IgG2, V domains shown)
VH: B2 VH with S30I, S98D, W101G, S102D
VL: B2 VL with T5I, Q27H, N30S, L46F, Y49S, I56T, I72T, F94L, F96L
notes: Hybridoma IgG2 (cohort 2); also called 2.475.2
B4: anti-c-fms hybridoma antibody 1.109 (antibody, V domains shown)
VH: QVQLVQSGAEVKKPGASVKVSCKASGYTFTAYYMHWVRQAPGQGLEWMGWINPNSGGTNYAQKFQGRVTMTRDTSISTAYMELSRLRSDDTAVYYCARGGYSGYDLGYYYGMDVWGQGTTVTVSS
VL: DIQMTQSPSSLSASVGDRVTITCQASQNISNFLDWYQQKPGKAPNLLIYDASDLDPGVPSRFSGSGSGTDFTFTISSLQPEDIATYYCQQYVSLPLTFGGGTKVEIK
notes: Hybridoma IgG1 (cohort 1)
B5: anti-c-fms hybridoma antibody 1.143 (antibody, IgG1, V domains shown)
VH: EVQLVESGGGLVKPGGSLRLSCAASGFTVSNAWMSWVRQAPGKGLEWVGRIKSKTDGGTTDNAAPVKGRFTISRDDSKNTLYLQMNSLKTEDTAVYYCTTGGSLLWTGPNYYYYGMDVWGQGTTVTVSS
VL: DIQMTQSPSSLSASVGDRVTITCQASQDINNYLNWYQQKPGKAPKLLIYDTSNLEPGVPSRFSGSGSGTDFTFTISSLQPEDIATYYCQQYDNLLTFGQGTRLEIK
notes: Hybridoma IgG1 (cohort 1); also called 1.143.2; 1.143.1

Substitutions are numbered along the chain they refer to.

T2 sequence (P07333 20-972): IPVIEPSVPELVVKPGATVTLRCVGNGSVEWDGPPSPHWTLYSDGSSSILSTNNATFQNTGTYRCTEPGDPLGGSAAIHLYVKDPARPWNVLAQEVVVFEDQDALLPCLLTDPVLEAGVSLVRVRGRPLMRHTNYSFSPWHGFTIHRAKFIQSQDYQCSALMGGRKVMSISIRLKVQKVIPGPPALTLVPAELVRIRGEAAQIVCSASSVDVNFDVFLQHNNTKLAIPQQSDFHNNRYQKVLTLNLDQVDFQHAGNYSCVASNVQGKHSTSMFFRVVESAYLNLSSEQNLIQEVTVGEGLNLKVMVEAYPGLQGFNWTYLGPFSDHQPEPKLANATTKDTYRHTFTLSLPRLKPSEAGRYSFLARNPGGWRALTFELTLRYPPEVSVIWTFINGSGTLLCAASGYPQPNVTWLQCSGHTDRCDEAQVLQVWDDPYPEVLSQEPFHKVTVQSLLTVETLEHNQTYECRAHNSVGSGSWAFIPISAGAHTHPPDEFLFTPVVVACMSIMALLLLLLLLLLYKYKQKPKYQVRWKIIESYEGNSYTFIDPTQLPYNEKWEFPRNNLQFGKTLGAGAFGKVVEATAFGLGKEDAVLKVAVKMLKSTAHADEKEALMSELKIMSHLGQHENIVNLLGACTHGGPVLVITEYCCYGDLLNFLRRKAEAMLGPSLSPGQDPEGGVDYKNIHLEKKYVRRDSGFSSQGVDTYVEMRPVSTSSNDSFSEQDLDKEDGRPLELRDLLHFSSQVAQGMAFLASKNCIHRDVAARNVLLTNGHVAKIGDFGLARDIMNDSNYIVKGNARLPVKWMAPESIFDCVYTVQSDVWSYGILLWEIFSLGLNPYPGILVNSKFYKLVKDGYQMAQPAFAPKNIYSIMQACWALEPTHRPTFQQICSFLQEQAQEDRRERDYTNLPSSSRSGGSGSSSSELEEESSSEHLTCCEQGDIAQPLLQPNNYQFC

For one test, the target named is T1, cynomolgus monkey c-fms on primary bone marrow cells (cynomolgus monkey). In words: cell-based or functional assay.
Regarding B1, the “Cynomolgus bone marrow bioassay IC50” value was found to be 0.053 nM.

With B2, the “Cynomolgus bone marrow bioassay IC50” value was found to be 0.04 nM.

Regarding B3, the “Cynomolgus bone marrow bioassay IC50” value came to 0.167 nM.

For B4, the “Cynomolgus bone marrow bioassay IC50” value came out at 0.073 nM.

B5: the “Cynomolgus bone marrow bioassay IC50” value was determined as 0.36 nM.

A further test has as its target T2, human c-fms, full length, on cells (human, UniProt P07333 20-972). The experiment in a line: cell-based or functional assay.
As to B1, the “AML-5 bioassay IC50” value worked out at 0.027 nM and the “Human CD14+ monocytes bioassay IC50” value worked out at 0.067 nM.

As to B2, the “AML-5 bioassay IC50” value was 0.007 nM and the “Human CD14+ monocytes bioassay IC50” value was less than 0.007 nM.

With B3, the “AML-5 bioassay IC50” value amounted to 0.04 nM and the “Human CD14+ monocytes bioassay IC50” value worked out at 0.067 nM.

As to B4, the “AML-5 bioassay IC50” value came out at 0.005 nM and the “Human CD14+ monocytes bioassay IC50” value was determined as 0.02 nM.

With B5, the “AML-5 bioassay IC50” value is 0.1 nM.

The target of the next test is T1, cynomolgus monkey c-fms on primary bone …. In words: cell-based or functional assay. This is another data set of the same source.
With B1, the “Cynomolgus bone marrow bioassay IC50” value is 8 ng/mL.

Consider B2, for which the “Cynomolgus bone marrow bioassay IC50” value worked out at 6 ng/mL.

Turning to B3, the “Cynomolgus bone marrow bioassay IC50” value worked out at 25 ng/mL.

For B4, the “Cynomolgus bone marrow bioassay IC50” value worked out at 11 ng/mL.

As to B5, the “Cynomolgus bone marrow bioassay IC50” value was determined as 54 ng/mL.

The target of another test is T2, human c-fms, full length, on cells. In words: cell-based or functional assay. This is another data set of the same source.
B1: the “AML-5 bioassay IC50” value worked out at 4 ng/mL and the “Human CD14+ monocytes bioassay IC50” value was 10 ng/mL.

B2: the “AML-5 bioassay IC50” value came out at 1 ng/mL and the “Human CD14+ monocytes bioassay IC50” value was less than 1 ng/mL.

Take B3: the “AML-5 bioassay IC50” value stood at 6 ng/mL and the “Human CD14+ monocytes bioassay IC50” value is 10 ng/mL.

For the molecule B4, the “AML-5 bioassay IC50” value is 0.7 ng/mL and the “Human CD14+ monocytes bioassay IC50” value was 3 ng/mL.

B5: the “AML-5 bioassay IC50” value came out at 15 ng/mL.

The target of the next test is T3, monomeric human c-fms (residues 1-512)-pHis (human, UniProt P07333 20-512).
T3 construct: Construct stated as residues 1-512; signal stated as amino acids 1-19 and left out; also called human c-fms (1-512).pHIS; monomeric c-fms
T3 sequence (P07333 20-512): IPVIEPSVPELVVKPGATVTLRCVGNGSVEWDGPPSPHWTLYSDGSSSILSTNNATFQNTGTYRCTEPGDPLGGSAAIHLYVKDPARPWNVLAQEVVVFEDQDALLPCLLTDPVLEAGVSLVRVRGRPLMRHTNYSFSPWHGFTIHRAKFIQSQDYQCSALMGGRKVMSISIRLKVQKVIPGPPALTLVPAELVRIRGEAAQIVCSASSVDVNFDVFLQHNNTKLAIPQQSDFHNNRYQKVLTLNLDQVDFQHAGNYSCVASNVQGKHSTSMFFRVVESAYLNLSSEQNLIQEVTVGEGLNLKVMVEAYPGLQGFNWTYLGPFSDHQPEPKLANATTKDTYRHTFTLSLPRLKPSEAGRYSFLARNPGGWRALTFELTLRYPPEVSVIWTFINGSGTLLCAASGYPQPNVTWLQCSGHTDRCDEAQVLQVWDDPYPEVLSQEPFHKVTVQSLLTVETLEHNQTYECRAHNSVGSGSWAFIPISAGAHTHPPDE
The experiment in a line: Biacore, low resolution; hybridoma mAb captured on anti-human IgG, monomeric c-fms-pHis analyte at 125 nM. Here is the method: Anti-human IgG was immobilized on all four flow cells of a sensor chip using amine coupling. Crude hybridoma samples were diluted into halves and captured on the anti-IgG surface. […] Sequence lineage analyses were also performed on the 29 hybridomas (see, FIG. 2).
B1 came in with a Kd of 5.6 nM, a koff of 0.000338 s⁻¹ and a kon of 60500 M⁻¹ s⁻¹.

In turn, B2 displayed a Kd of 4.6 nM, a koff of 0.000703 s⁻¹ and an association rate constant (kon) of 153000 M⁻¹ s⁻¹.

Molecule B3 gave an equilibrium dissociation constant (Kd) of 4.7 nM, a koff of 0.0014 s⁻¹ and an association rate constant (kon) of 300000 M⁻¹ s⁻¹.

For the molecule B4, the Kd came to 0.1 nM, the koff was determined as 4.36e-05 s⁻¹ and the on-rate (kon) is 385000 M⁻¹ s⁻¹.

B5 returned a Kd of 10 nM, a koff of 0.000559 s⁻¹ and a kon of 55000 M⁻¹ s⁻¹.
